Source: PMC9371698

Experiments:
[1] = biological target: canine E-cadherin ectodomain K14E mutant (canine); assay: single-molecule atomic force microscopy; biotinylated canine Ecad on streptavidin on PEG tethers on both AFM tip and coverslip; without 19A11 (−ab); pulling velocity 1 µm/s; pH 7.5, 10 mM Tris-HCl, 100 mM NaCl, 10 mM KCl, 2.5 mM CaCl2
[2] = biological target: canine E-cadherin ectodomain K14E mutant (canine); assay: single-molecule atomic force microscopy; as −ab, but tip and coverslip incubated with 19A11 Fab and 150 nM free 19A11 Fab in the measurement buffer (+ab); pulling velocity 1 µm/s; pH 7.5, 10 mM Tris-HCl, 100 mM NaCl, 10 mM KCl, 2.5 mM CaCl2

unbinding force (peak of a single Gaussian), without 19A11 [1]: 41.2 pN
unbinding force (peak of a single Gaussian), with 150 nM 19A11 [2]: 40.3 pN
Substance: canine E-cadherin ectodomain K14E mutant (domain or fragment)
